Laboratory results from US20100226910.

Target: Synthetic human amyloid protein Aβ1-42 or Aβ1-40 (UniProt P05067)
Sequence (P05067 whole entry, looked up, tested part not stated): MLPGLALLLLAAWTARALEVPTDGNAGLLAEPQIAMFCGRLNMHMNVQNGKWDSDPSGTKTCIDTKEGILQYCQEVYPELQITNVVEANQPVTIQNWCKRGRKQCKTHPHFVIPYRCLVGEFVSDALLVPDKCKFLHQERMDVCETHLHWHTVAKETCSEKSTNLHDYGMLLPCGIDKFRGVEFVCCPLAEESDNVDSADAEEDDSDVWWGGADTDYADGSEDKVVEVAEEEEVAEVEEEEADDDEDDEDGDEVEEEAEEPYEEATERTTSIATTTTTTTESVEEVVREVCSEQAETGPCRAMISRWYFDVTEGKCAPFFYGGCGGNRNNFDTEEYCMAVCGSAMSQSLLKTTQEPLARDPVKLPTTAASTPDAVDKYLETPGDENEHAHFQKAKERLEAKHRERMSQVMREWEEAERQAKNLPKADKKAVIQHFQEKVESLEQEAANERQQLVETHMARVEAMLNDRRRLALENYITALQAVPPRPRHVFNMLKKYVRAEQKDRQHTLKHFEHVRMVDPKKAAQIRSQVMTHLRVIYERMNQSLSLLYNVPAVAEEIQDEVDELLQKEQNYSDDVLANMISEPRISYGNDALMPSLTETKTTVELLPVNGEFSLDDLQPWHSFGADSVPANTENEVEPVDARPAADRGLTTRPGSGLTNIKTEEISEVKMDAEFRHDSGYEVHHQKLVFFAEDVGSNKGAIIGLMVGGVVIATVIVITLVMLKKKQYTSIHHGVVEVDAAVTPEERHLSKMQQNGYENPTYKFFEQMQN

Q: For KLK1 (Sigma), which “cleavage of amyloid fibrils in vitro, mass spectra after digestion” value is on record?
A: Its value is “KLK1 cleaves amyloid fibrils (FIG. 1); in panel C, there is a clear peak at about 2423 M/Z (mass to charge ration), which is an indication of cleavage”.

Q: And the “cleavage of soluble amyloid in vitro, mass spectra after digestion” value?
A: The value was “In panel B, there are no visible peaks when KLK1 was added to soluble amyloid. This indicates that KLK1 cleaved the soluble amyloid into smaller fragments”.
